Data as given in patent US20230080865A1.

Experiments:
[1] = molecular target: AEG::SOE2 chimeric recombinant protein; experiment: ELISA, AEG::SOE2 coated on wells; reagent 1:1000
[2] = molecular target: AEG::SOE3 chimeric recombinant protein; experiment: ELISA, AEG::SOE3 coated on wells; reagent 1:1000

In the case of “secondary peroxidase-conjugated goat anti-mouse IgG (antibody)”, the ELISA signal [1] is reported as 0.11 and the ELISA signal [2] is reported as 0.111.
